Test [1] concerns the target human IL-36R full-length protein stably expressed on CHO-K1 cells (human) (UniProt Q9HB29). Nature of the test: FACS, CHO-K1 cells overexpressing human IL-36R.
Test [2] has the same target. As to the kind of experiment: FACS, CHO-K1 cells overexpressing human IL-36R. This is another data set of the same source.
For test [3], the target named is human BAFF (ACROBiosystems, BAF-H52D4) (human) (UniProt Q9Y275). As to the kind of experiment: ELISA, test sample coated, His-tagged BAFF in solution.
Sequence of human BAFF (ACROBiosystems, BAF-H52D4) (human) (Q9Y275 134-285 limits assumed): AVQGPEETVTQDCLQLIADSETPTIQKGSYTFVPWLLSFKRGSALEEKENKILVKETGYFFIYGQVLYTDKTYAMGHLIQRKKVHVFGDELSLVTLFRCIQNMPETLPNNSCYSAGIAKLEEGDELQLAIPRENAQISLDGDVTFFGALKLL

Read-outs that look alike come from different tables or passages of the source.

Sequence of human IL-36R full-length protein stably expressed on CHO-K1 cells (human) (Q9HB29 20-575 limits assumed): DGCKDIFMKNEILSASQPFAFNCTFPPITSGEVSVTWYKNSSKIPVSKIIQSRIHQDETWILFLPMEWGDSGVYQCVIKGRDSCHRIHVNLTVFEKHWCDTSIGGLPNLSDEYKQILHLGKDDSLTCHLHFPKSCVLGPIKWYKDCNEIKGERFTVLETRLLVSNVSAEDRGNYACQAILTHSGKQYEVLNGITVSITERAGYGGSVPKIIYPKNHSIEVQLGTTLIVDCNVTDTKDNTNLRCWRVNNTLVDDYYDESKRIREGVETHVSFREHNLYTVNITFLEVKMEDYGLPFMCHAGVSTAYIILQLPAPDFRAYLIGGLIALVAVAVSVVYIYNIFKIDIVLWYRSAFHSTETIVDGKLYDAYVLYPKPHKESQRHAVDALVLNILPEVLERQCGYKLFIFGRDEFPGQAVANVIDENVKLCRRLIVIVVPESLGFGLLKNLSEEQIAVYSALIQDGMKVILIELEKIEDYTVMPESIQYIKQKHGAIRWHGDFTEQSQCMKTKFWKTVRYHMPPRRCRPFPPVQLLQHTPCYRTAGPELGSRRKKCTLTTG

Turning to hIgG1 (antibody), the Maximum MFI was 47 MFI in test [1] and 77 MFI in test [2].
With “RCT-18, telitacicept (RC18, RemeGen) (Fc fusion)”, the EC50 in test [3] was 21.5 nM.
In turn, hIgG4 (antibody) returned a Maximum MFI in test [2] of 76 MFI.

Values taken from patent EP4671282A1.
